Key:
Assay in all cases: ELISA; indirect ELISA; VLP coated at 1 µg/mL on 384-well plates at 4 °C overnight, blocked with 5% nonfat dry milk in PBS with 0.05% Tween-20; mAb normalised for antigen-binding sites, from 500 nM with 11 serial dilutions; detection with anti-κ or -λ secondary antibodies
Details in all cases: both partners purified
[1] = molecular target: T1, HuNoV GII.3 virus-like particle (Norovirus Hu/GII.3/TCH-104/USA/2002 …, UniProt S4VLU9, strain)
T1 construct: also called GII.3 VLP

[2] = molecular target: T2, HuNoV GII.6 virus-like particle (Norwalk-like virus …, UniProt Q918A7, strain)
T2 construct: also called GII.6 VLP

[3] = molecular target: T3, HuNoV GII.13 virus-like particle (Norovirus Hu/GII.13/VA173/2010/USA, strain)
T3 construct: also called GII.13 VLP
T3 chain: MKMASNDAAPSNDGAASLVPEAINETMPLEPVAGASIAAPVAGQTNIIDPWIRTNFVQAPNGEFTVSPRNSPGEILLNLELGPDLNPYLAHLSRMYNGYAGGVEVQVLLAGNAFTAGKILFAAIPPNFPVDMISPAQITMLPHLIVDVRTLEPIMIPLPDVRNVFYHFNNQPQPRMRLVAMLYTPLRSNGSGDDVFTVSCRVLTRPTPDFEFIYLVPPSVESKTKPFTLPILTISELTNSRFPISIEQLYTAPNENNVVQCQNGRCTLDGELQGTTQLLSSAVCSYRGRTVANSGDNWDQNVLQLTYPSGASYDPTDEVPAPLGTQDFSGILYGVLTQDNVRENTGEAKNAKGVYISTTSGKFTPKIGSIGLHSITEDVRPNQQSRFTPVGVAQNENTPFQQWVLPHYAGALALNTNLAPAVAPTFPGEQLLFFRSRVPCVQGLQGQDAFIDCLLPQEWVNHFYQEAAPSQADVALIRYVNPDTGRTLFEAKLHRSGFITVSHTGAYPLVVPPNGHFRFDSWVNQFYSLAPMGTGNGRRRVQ

[4] = molecular target: T4, HuNoV GII.17 virus-like particle (Norovirus …, strain)
T4 construct: also called GII.17 VLP
T4 chain: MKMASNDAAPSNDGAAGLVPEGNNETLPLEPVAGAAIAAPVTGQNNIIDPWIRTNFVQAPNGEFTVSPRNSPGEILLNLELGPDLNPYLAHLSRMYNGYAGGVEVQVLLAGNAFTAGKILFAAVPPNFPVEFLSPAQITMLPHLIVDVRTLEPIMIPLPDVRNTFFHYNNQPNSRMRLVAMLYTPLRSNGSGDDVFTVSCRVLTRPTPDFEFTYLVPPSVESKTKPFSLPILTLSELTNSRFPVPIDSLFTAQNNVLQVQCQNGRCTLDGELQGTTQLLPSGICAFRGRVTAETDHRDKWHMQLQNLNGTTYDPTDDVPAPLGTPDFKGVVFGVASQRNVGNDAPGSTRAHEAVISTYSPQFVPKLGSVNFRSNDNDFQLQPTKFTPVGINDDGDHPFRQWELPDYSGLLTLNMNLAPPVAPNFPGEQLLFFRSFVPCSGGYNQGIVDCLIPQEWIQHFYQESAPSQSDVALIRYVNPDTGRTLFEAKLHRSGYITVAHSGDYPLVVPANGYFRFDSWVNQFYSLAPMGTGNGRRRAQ

Measured: binding result

B1: NORO-320 IgA (hybridoma-secreted dimeric IgA) (antibody, V domains shown)
VH: QVQLVQSGPEVKKPGSSVKVSCKASGGTVSSYAISWVRQAPGQGLEWMGGIIPIFDTTNYAQKFQGRVTITADESTGTSDMELSSLRSEDTAVYYCARDRVPSYSPSRRFSTKGAMWGKYGMDVWGQGTLVTVSS
VL: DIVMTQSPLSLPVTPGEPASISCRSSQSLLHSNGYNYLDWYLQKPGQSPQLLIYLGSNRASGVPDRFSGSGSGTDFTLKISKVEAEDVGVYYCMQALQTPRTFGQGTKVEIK
notes: also called mAb NORO-320; Hyb dimeric IgA
binds: [1] | [2] | [3] | [4]

Source: publication PMC8280134, “Broadly cross-reactive human antibodies that inhibit genogroup I and II noroviruses” (Nature Communications, 2021)
